Assay results as given in paper PMC8519905, “Reproducibility and accuracy of microscale thermophoresis in the NanoTemper Monolith: a multi laboratory benchmark study” (European Biophysics Journal, 2021).
“And” between values parts separate entries of the source, which are not always exact repeats. Equal entries are not always repeated.

B1: anti-lysozyme nanobody: Cab-Lys3 with T101 of the CDR3 loop mutated to serine (VHH)
VHH: DVQLQASGGGSVQAGGSLRLSCAASGYTIGPYCMGWFRQAPGKEREGVAAINMGGGITYYADSVKGRFTISQDNAKNTVYLLMNSLEPEDTAIYYCAADSSIYASYYECGHGLSTGGYGYDSWGQGTQVTVSS
notes: parent chain is the VHH Cab-Lys3 (De Genst et al. 2002), with T101 in the CDR3 loop changed to serine; 14.2 kDa; also called NB; VHH; source: T7-Express E. coli (pET-22B), purified (Profinity IMAC, Superdex-75)

Tests used:
unlabeled lysozyme = molecular target: T1, unlabeled lysozyme (Gallus gallus, UniProt P00698); experiment: label-free microscale thermophoresis (NT.LabelFree); format: binding; conditions: unlabelled protein; buffer not printed in main text for this test
T1 construct: gene LYZ; native hen egg white lysozyme (mature chain, signal peptide removed), unlabelled; source printed for the stock used for labelling

[1] = molecular target: T2, Lysozyme isolated from hen egg white, labeled with RED-NHS 2nd generation dye (Gallus gallus (hen egg white), UniProt P00698, RED-NHS 2nd generation dye, amine reactive; degree of labeling ~0.70); experiment: MST; TRIC analysis of the MST/TRIC time trace; RED-NHS labeled lysozyme as target, nanobody as titrated ligand; PBS+ (10 mM phosphate pH 7.4, 2.7 mM KCl, 137 mM NaCl, 0.005% Tween-20); premium coated capillaries; triplicates on 40 Monolith NT.115/NT.Pico instruments; means over instruments; analysed centrally with MOAA and PALMIST (hot region 0.5-1.5 s) and individually by users; fitted without correction for the …; conditions: both partners purified
T2 construct: lysozyme isolated from hen egg white (ROCHE Cat.No. 10837059001); also called labeled lysozyme; red labeled lysozyme; source: bought: ROCHE Cat.No. 10837059001 (isolated from hen egg white); labeled with the Monolith NT Protein Labeling Kit RED-NHS 2nd Generation

[2] = molecular target: T2, Lysozyme isolated from hen egg white, …; experiment: other fluorescence titration; analysis of the absolute (initial) fluorescence of the same Monolith datasets; RED-NHS labeled lysozyme as target, nanobody as titrated ligand; PBS+; triplicates on 40 instruments; means over instruments; analysed centrally with MOAA and PALMIST and by 8 of 40 users; conditions: both partners purified
[3] = molecular target: T2, Lysozyme isolated from hen egg white, …; experiment: MST; TRIC analysis of the MST/TRIC time trace; RED-NHS labeled lysozyme as target, nanobody as titrated ligand; PBS+ (10 mM phosphate pH 7.4, 2.7 mM KCl, 137 mM NaCl, 0.005% Tween-20); premium coated capillaries; triplicates on 40 Monolith NT.115/NT.Pico instruments; means over instruments; analysed centrally with MOAA and PALMIST (hot region 0.5-1.5 s) and individually by users; fitted without correction for the …; conditions: both partners purified; remark: listed apart in the source

T2 sequence (P00698 19-147): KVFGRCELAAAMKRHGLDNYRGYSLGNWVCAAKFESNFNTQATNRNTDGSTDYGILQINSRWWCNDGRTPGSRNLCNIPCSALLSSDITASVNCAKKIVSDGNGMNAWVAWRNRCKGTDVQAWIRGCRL
T1 sequence (P00698 19-147): as above

Molecule | Kd (unlabeled lysozyme) [nM] | Kd [1] | Kd [2] | Kd [3] [nM]
CC(=O)N[C@H]1[C@H](O[C@H]2[C@H](O)[C@@H](NC(C)=O)C(O)O[C@@H]2CO)O[C@H](CO)[C@@H](O[C@@H]2O[C@H](CO)[C@@H](O)[C@H](O)[C@H]2NC(C)=O)[C@@H]1O (stereo partly shown) [NAG3] | ~4000 |  |  | 
B1 |  | 111 nM and 119 nM and 76 nM | 256 nM and 259 nM and 272 nM | 1170
